Measurements as given in the NTF2 design screens of Basanta et al. (2020).

Test: protease stability score; higher = more stable; yeast display proteolysis, trypsin and chymotrypsin;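 also: relative to predicted unfolded state with 0 unfolded-like and 1 meaning tenfold more protease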

Sequence: SEDHEATHLIVELLERALKTGNERLWKDLFDPNVRIDINGKYFHGREEYVHFFKEWRFHDSRVHVHEVRVNEHELHIHGEVESHVTYNGQHRNLRLETTLFVIKVNGRWLFRHIEVR
- protease stability score: 1.5

Sequence: SEDHEDMDRMFDLLIKLLYTGDEESLEELFDPNTRIDVGDKVLHGRELAVKHVKDRLRRADHIEFHIKDRRAIDGRLEIDMELRIHVDGKDIIIRTKVHLEKVNGRWLIHHIKVH
- protease stability score: 1.38

Sequence: SEDHEEVRKVTKVYLELFETGDEEELMKLADPEVRLHINGRDLHGREWMERAIRELLEYYGVKHIESWTIHDITIQGDKAVMDTSVKIRVNGREHELKMHIYSRKFDGRWFLTSVRFH
- protease stability score: 1.26

Sequence: SEDHEFSEHALREFIHVLMTGDERSLLKLMDPHTQLIFNGKEIHGMEEIIRIWSEHVKRFGFNHIDHVHIHHVEIQGDKIRIDGTTRGLVNGREHTHRTHLIAIKYNGKWIIHNIKID
- protease stability score: 1.9

Sequence: SEDHEFVRFIIEQLLHDLFTGDWRRLLKLFDPNAMIEVGDKTLHGMENIYRWHEEHYERLGLSNVEIHILIRKIHIQGDKVHIDGLLRLHFNGRDTEIHVRLHALKIDGKWQLTRVQHD
- protease stability score: 1.89

Sequence: SEDHEIARLAVEIETHSQLTGDEESMNHLLDPTTRININGRELHGREEAIEWMKRFMEQFDHVKVEVEDISIQGEKLIIRGRFSVIYDGRKVQDHTEVIIVKFNGRWHVKSVHIR
- protease stability score: 2.58

Sequence: SEDHEIIRHYFELLVESFRTGDEETTRRLADPNTRLYFNGKTLHGMEAMLEVLLEIRIEEVELHHVEVINGRVEMDGTVRGIFNGRNQEVKVTFHARKINGVWILNWVEIH
- protease stability score: 2.12

Sequence: SEDHEISRRMLEMVLDSFDTGDEHIYKDLADPHAKIEVNGKDIHGWDTWASEMVERTERVPGVRKEIHIRDIKSQGDKIEIRGEVIIDFNGKTIRYRVLFVIEKINGRWFIKSEHIK
- protease stability score: 1.04

Sequence: SEDHELLKRELETFIKHLETGDEDILRRLADPHVRLEYNGKEFHGRDRIVEEWVRIAREIRIKVEIHHITYIGDKLEVDTILKIEQGDKRTEFRIEIFIQKVNGQWLLKEIKIK
- protease stability score: 1.44

Sequence: SEDHELRKHLADRTYKWLATGNFEELMKLMDPNTRFTIGEFNDHGRKAIEWLWRELGVDHFHFREIRVQGDKIHMDTEFEFNGVKVRTHFRVIVIDGRVTSVIILTE
- protease stability score: 1.34

Sequence: SEDHELVHRFTHFFLRMYFTGDEKEMEDLLDPNTRILWNGKEFHGREEVIEALRYIRSHARIRDFTIHSFEIFDGRAKMDTREHGEIDGRLRTFTLRLHILKVNGRWQFQEIQIE
- protease stability score: 2.12

Sequence: SEDHEMAKRIVKQFMEEIFTGDWRDFEELLDPDVRIIIGDKELHGREQFELELRHMRRSIDEMHFTDAKVVGDKMIFDTRMKITIHVNGKELRFTTKSTFFILKVDGVWRIRQITVL
- protease stability score: 2.13

Sequence: SEDHEMVKKLIHDLMRARSTGDEEEFYKLLDPHVRSDINGQETHGREEFVHWFIRHHHEFGFDHVERVHLHHIELIGDKIHVDLIVHITVGEYTIVTHEHLVIWKIDGRWVLRSMDLH
- protease stability score: 1.43

Sequence: SEDHENIERFLTHFVTAIETGNFNELEKLLDPNAQIEINGQRIHGREWFVDHIRRIKNIRFEIHVEDSEFYNGKAHIRTRLILKYGDKEREHDVVLVIRKINGRWVIEWIIIE
- protease stability score: 1.54

Sequence: SEDHENLRKSLEFFKHVVDTGDFRKLLQLADPNTRIIINGQTVHGMELTQKIWIHQFREAGHTRIHIRIEDIDVQGDKIQIDGKLDINGQERDTNLFIEKVNGRWIIRSIEFQ
- protease stability score: 1.38

Sequence: SEDHERERRVNEEFLTAMWTGDEKWIMNLADPNVRTEWNGVENIGRETISEHLDHQKKRLGVKHIEIKHVEIINGVLHMHGRLDVNGVETEVIIRSFIIDGRLTELIFEIR
- protease stability score: 0.819

Sequence: SEDHERMKEMIELTLHAIFTGDEDLLKRLLDPHTRIVVNGQDRHGRHALEWFLSVLGIKHIHYEIVRTHLVNGVLHNHIHGHLNVNGKTYELEVEITIRKINGRWLMHVVQWDII
- protease stability score: 1.99

Sequence: SEDHERTEIAFKIMLHIFDTGDEHTMHRLVDPNARLRIGDKDWHGREFFFDVISRIKNLRIEELSIEDDDFVNGRIILHGRRNGSIGDKEIDTIVHLLIKKVDGRWRIEHVHNE
- protease stability score: 1.36

Sequence: SEDHEVARDIMEILLHLYLTGNEEDLKQFFDPHVRLVIGDKNIHGREEVVNHLKRILDRIPNVRVKHFTLHDIRIIGDKIYLNTEIHVKINGRDHRSETRWVILKVDGVWHLHSVEVG
- protease stability score: 2.05

Sequence: SEDHEVLRVALELMLHFLTTGDWHLLRKLMDPEVRIRVGEKHIHGMDLILSEWVRVIRELGVKHYHIEVKRDHHQGDKIHLDGTLHIDVNGRQIHIRTEIIAHKVDGKWIHESQVIN
- protease stability score: 0.988

Sequence: SEDHHETQRALELLVTFLRTGDEHTLERLMDPDTRSIIDGVELHGREDMKEVLEWLVKQADHLESVHVRYLNVQGDKAQIHVELRGRFNGKHSIHEVHITTVKINGKWLITEVEFR
- protease stability score: 1.93

Sequence: SEDHHLMEHAIEIMLEMIRTGDEQKYLNLVDPHARLEIDGREHHGWKRMREVFRWLGVDHSDVRHVNVQGEKVEVDTIIEVGDKRIEVIVIVRKINGRWVIEEVRVH
- protease stability score: 0.549

Sequence: SEDHHSLRNAWELLIKSIKTGDENLMERFADPSTKSRIDGVELVGREEVVHYFMQLRVKDVKLDEVDVVDGRVVIDGTLHGEYNGREETHKVRLFINKVDGQWILHSVEFH
- protease stability score: 0.938

Sequence: SEDHKASHFNLILLLRAINTGDEDLEKELADPHVRYEFNGVDLVGMEDWVRFLEEIRVHPRDVKIQRHRVVNGRITFDVRLEGEFTYNGRTYRDTRETTAFVLKVNGRWIMHLHRID
- protease stability score: 1.48

Sequence: SEDHKETEEAMHKIRHDLETGDEKSWHEQADPNTRIDINGVDLHGREWASKFYSDVMQKVKGATVHLKHVHIFENRLIVDGIEIVNGRTHRVHLIADKINGRWVIREIRVE
- protease stability score: 1.06

Sequence: SEDHKQAEEFMHRVAHNVLTGDEEKLDELIDPDARLEIGDKEHHGREIFIEFWRQLRVRDIKIRHWEIIGDKIFIRGEMNGIVDGRTRIFDIIVVMVKINGKWTLKRVEIK
- protease stability score: 1.5

Sequence: SEDHLEARETVTEELRARQTGDERRLDELIDPNTRLEINGKEVHGMEQIIEETRRLGVDVVEIRLERHDRFNGVIHVRGRLHYNWNGKSIDHETELIVYKVDGQWIVHSIHVL
- protease stability score: 1.05

Sequence: SEDHRDAEKFLRLFMELFKTGDFEELFRLVDPNVRLEINGREFHGRELVKKLLKEEHDRYKNATSEVEIDRIHIQGDWVHADIELRLDYNGKTLRWETHLVMLKVDGRWFVRSYSER
- protease stability score: 2.6

Sequence: SEDHREARHAVHVFLHLLETGDEDHLVKLLDPNVRYVIGDKTHHGWEELERIRNKFKNIRITLRDRDFHIFDGRLLVLIRGELEFDGRRVDFEVITYIEKINGRWIVSEFRIHLN
- protease stability score: 1.5

Sequence: SEDHRHAMEFIHHMVRAIHTGDEQILTEYLDPHVRIENENETLHGWEHRTEWMKRFDHIDRHIIVRHVEIQGNKVKVDAELRFRLHQGDFVEENEIRLRIIILKVDGRWVLHKVRFI
- protease stability score: 1.35

Sequence: SEDHRMMKEALDKLIDSIETGDPELYLRLFDPDTQTRIGDKHIHGWEEIEKIFRKILERFDHFEHMHLEHFDIQGNYIHLDIRLWGKVNGKRITLNIRVVVVKYNGRWTIREESLT
- protease stability score: 1.72

Sequence: SEDIDIAREMADIIIKYWETGDEDNVRQLMDPNVKFHIGDKVNIGREWMLEFVRHWKEHARMHLKVEDFRIVGDKIHVDTRIELNVNGREMHIDLHIHLRIVNGRLKSSHIEHR
- protease stability score: 1.19

Sequence: SEDIEELRKVFEDWVRILRTGDEKSHKELMDPTYRNDQGEFHYHGMEDLEKFTRRYDHVNLIFRDMRLVNGVARVDGEIQLHQGDFKIDTHVIIYMLKIDGQWRIRSIEIR
- protease stability score: 2.08

Sequence: SEDIEHVEEALEMFRETLITGDEEIIRRLIDPHVRIIINGREYHGREAMDHFMKRFDVIHNLHITHWEDINGRMHVHGRIEGNIDGKTDVIETRILVVKVDGQWWFETIRIG
- protease stability score: 2.27

Sequence: SEDIEIVKQVLEFHIRSEITGDEDTMTELLDPHTRITIGDKHIHGREEAVRILLEIANHMRIHRFHVHQVHIYDGRLEIDMRIDREYDGKRRHQEVWWIFIKVNGRWYIHSIEIR
- protease stability score: 1.67

Sequence: SEDIELVHNIMEHMAKAFTTGDERHLLNLFDPNVRFMINGQNYVGWEHLINWIEHIRIKRVDLRINDVKLIGDKLHIHGRFIVRGQIDGREIDRVEDTRINFQKINGRWIIEELHFV
- protease stability score: 2.61
